Holding throughout (test): MSD specificity profiling, coated protein, Camille at 10 nM
The target of assay [1] is Serum albumin (human) (human, UniProt P02768 25-609). The protocol: (§1) For this specificity profiling test the different proteins and controls were coated on two 384-well MSD plates with a concentration of 1 μg/ml at 4° C. over night. Plates were blocked with BSA and washed three times with PBS with 0.05% (v/v) Tween 20. Antibody samples were diluted to 100 nM and 10 nM in assay buffer (PBS with 0.5% (w/v) BSA, 0.05% (v/v) Tween 20). […] Samples and controls were incubated for three hours at room temperature. The plates were washed three times and 30 μl detection antibody (ECL-labeled anti-human Fab) were added per well and incubated for 1 h. After washing, MSD Read Buffer T with surfactant was added and electrochemiluminescence signals were detected using a Sector Imager 6000 (Meso Scale Discovery, Gaithersburg, Md., USA).

Assay [2] has as its target T1, Fibrinogen (bovine) (bovine, UniProt P02672 20-615; P02676 1-468; P12799 25-444).
T1 sequence (looked up) 1: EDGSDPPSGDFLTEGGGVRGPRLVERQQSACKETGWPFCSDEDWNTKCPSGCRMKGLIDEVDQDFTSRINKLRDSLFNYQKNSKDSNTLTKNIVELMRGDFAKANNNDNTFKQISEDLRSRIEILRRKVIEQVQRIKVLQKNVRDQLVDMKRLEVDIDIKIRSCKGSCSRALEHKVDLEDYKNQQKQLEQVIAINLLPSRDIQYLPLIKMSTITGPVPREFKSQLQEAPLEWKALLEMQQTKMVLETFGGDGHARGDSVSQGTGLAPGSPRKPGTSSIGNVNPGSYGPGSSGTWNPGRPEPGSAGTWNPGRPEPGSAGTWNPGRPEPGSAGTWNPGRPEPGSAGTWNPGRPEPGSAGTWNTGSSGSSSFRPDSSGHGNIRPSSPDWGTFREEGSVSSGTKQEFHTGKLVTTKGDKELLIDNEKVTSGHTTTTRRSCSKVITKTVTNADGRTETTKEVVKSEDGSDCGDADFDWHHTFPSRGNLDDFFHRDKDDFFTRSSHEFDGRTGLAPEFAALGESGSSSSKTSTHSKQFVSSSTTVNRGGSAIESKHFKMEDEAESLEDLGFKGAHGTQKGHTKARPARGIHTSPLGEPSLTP
T1 sequence (looked up) 2: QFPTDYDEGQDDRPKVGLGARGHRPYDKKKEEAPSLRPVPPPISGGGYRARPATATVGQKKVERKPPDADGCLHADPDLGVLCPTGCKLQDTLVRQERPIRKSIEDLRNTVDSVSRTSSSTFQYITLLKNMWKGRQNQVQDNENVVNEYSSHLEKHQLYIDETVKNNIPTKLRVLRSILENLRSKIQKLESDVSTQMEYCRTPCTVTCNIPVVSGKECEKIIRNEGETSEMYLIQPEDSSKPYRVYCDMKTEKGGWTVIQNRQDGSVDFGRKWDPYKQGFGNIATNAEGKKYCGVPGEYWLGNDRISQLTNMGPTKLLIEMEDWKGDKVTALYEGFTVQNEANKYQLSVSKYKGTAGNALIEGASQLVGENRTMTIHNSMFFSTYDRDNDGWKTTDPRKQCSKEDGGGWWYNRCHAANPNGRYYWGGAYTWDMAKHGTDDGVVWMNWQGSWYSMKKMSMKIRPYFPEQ
T1 sequence (looked up) 3: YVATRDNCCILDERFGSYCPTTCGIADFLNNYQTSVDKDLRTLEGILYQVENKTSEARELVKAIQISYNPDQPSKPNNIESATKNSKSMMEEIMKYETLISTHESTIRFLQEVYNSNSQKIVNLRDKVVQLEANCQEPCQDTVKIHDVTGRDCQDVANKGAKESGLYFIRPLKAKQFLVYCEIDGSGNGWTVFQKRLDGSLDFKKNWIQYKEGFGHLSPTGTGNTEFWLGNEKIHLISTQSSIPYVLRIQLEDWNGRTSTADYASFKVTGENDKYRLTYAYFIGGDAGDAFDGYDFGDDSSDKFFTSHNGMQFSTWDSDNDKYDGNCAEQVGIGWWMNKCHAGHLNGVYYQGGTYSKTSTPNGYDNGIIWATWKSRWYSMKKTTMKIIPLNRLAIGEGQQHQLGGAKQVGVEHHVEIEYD
The method, then:
as §1

The target of assay [3] is Transferrin (bovine) (bovine, UniProt Q29443 20-704). The protocol: as §1
The target of assay [4] is Antitrypsin (human) (human, UniProt P01009 25-418). The protocol:
as §1

Assay [5] concerns the target Lysozyme (chicken) (chicken, UniProt P00698 19-147). The protocol:
as §1

The target in assay [6] is Cell surface receptor 1 (human) (human). The protocol:
as §1

The target of assay [7] is Cytokine 1 (human) (human). The protocol:
as §1

For assay [8], the target named is Cytokine 2 (human) (human). The method, then:
as §1

Assay [9] concerns the target Cell surface receptor 3 (human) (human). The method, then:
as §1

In assay [10] the target is Pepsinogen (pork) (pork, UniProt P00791 16-385). The protocol: as §1
For assay [11], the target named is Myoglobin (horse) (horse, UniProt P68082 2-154). The method, then: as §1
In assay [12] the target is T2, RNase A (cow) (cow, UniProt P61823 27-150).
T2 sequence (looked up): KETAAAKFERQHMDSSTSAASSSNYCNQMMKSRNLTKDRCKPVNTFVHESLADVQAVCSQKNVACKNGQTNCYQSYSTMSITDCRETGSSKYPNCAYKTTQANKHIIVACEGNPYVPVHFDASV
The protocol:
as §1

For assay [13], the target named is Anti-human Fab (Dianova, # 109-005-097). The method, then:
as §1

Lysozyme (chicken), sequence (P00698 19-147): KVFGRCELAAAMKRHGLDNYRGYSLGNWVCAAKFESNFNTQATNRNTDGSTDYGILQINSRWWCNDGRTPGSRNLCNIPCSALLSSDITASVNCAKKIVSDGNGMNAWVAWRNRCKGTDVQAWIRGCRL
Transferrin (bovine), sequence (Q29443 20-704 limits assumed): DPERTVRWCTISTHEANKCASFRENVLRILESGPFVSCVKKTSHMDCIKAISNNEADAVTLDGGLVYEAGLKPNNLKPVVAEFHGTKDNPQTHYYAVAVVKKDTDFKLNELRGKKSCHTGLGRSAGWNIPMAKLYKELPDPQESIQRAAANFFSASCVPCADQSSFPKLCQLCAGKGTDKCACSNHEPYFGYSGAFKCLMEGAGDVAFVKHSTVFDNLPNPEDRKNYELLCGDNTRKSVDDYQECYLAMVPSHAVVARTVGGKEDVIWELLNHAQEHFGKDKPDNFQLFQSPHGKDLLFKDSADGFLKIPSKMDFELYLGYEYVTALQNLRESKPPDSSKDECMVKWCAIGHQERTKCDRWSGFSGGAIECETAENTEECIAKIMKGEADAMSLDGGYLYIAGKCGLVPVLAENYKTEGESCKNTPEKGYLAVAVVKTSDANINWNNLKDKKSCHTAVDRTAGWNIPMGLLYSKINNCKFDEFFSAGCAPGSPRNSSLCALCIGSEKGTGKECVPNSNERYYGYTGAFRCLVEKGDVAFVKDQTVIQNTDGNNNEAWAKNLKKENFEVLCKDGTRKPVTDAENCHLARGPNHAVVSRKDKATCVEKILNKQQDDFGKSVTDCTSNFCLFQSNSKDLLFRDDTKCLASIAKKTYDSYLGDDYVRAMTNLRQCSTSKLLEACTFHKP
Pepsinogen (pork), sequence (P00791 16-385): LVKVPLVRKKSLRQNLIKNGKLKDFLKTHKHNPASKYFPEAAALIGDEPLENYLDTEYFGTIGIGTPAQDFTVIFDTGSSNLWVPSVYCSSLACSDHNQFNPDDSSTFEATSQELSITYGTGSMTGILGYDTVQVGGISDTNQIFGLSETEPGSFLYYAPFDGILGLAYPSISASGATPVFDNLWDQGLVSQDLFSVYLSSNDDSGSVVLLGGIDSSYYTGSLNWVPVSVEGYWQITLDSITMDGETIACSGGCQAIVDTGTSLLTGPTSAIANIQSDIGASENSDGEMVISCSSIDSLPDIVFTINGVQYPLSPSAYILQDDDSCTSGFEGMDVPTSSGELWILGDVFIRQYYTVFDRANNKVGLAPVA
Myoglobin (horse), sequence (P68082 2-154 limits assumed): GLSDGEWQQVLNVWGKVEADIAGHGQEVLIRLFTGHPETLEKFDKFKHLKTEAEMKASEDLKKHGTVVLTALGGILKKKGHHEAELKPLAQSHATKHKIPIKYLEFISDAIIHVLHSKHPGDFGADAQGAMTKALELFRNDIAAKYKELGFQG
Antitrypsin (human), sequence (P01009 25-418 limits assumed): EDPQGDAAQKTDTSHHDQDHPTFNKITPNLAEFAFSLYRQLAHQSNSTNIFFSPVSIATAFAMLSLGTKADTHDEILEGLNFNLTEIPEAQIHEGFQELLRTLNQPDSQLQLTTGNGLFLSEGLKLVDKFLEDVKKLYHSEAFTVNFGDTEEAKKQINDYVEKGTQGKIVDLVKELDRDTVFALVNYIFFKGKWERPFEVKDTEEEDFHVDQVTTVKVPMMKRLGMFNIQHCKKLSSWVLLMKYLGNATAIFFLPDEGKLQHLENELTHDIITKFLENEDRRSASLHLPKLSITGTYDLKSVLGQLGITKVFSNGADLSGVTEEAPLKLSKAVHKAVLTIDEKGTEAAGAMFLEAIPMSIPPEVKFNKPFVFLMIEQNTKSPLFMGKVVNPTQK

B1: Camille (format not stated) (antibody, V domains shown)
VH: QVQLQQSGPGLVKPSQTLSLTCAISGESVSTSSAAWNWIRQSPSRGLEWLGRTYYRSKWKHEYAVSVKSRITINPDTSKNQFSLQLNSVTPEDTAVYYCARDRYYYSAFDYWGQGTLVTVSS
VL: QSALTQPASVSGSPGQSITISCTGTSSDVGGYNSVSWYQQHPGKAPKLLIYAVSNRPSGVSNRFSGSKSGNTASLTISGLQAEDEADYYCASYDERFTRVFGGGTKLTVLG
notes: also called Antibody Camille
Consider B1, for which the “signal normalized to reference antibody MOR03207” value (“signal normalized” for short) in [1] stood at 1 ratio; in [2] it was 1 ratio; in assay [3], 1 ratio; in assay [4], 1 ratio; in assay [5] it was 0 ratio; in assay [6], 1 ratio. The “signal normalized” value in [7], in [8], in assay [9], in [10], in [11] and in assay [12] was 1 ratio each time. The “signal normalized” value in assay [13] was determined as 1 ratio.

Source of the values: patent US20180057581A1 (MorphoSys, published 2018).
